Read-outs that look alike come from different tables or passages of the source.
B1: recombinant 1F2 IgG2a (antibody, V domains shown)
VH: QVHLQQSGPEVARPGASVKLSCKASGYTFTDYYLNWVKQRPRQGLEWIGQIHPGSTNTYYNEKFKGKATLTADKSSSTAYMQLSSLTSEDSAVYFCARSLGDGYYVYAMDYWGQGTAVTVSS
VL: DIVMTQSQKFMSTSVGDRVSVTCKASQNVVTNVVWYQQKPGQSPKPLIYSASYRYSGVPDRFTGSGSGTDFTLTISNVQSEDLAEYCCQQYHSYPFTFGSGTKLEVK
B2: recombinant 1F2 monomeric IgA (antibody, V domains shown)
VH: B1 VH
VL: B1 VL
B3: recombinant 1F2 IgG2b (antibody, V domains shown)
VH: B1 VH
VL: B1 VL
B4: 1F2 antibody (murine IgG2a, hybridoma-produced) (antibody, V domains shown)
VH: B1 VH
VL: B1 VL
notes: also called mAb 1F2; IF2
B5: recombinant 1F2 IgG1 (antibody, V domains shown)
VH: B1 VH
VL: B1 VL
B6: 3G1 antibody (murine IgG2a, hybridoma-produced) (antibody, V domains shown)
VH: QVQLQQSGAELMKPGASVKISCKATGYKFTSYWIGWVKQRPGHGLEWCGEIFPGSGSINYNEKFKGKATFTADTSSNTAYLQLTSLTSEDSAVYYCARGEDYYGSSYGAMDYWGQGTSLTVSS
VL: DVQITQSPSYLAASPGETITINCRASKSISKYVAWYQEKPGRTNKVLIYSGSILSFGNPSRFSGSGSGTDFTLTISSLEPEDFAMYYCQQHNEYPWTFGGGTKLEIK
notes: also called mAb 3G1
B7: recombinant 4F11 IgG2b (antibody, V domains shown)
VH: DVKLVESGGDLVKPGGSLKLSCAASGFTFSAYSMSWVRQTPERRLEWVATINTGGSFTYYPDSVKGRFTISRDNAKNTLYLQMSSLKSEDTAMYFCTRVSDYGNSAYFPYWGQGTLVIVSA
VL: QVVLTQSPALISASPGEKVTMTCSASSNVNYMSWYQQRPRSSPKPWIYLTSKLASGVPPRFSGSGSGTSYSLTISSMEAEDVATYYCQQWSSDPQTFGGGTKVEIK
B8: recombinant 4F11 monomeric IgA (antibody, V domains shown)
VH: B7 VH
VL: B7 VL
B9: recombinant 4F11 IgG2a (antibody, V domains shown)
VH: B7 VH
VL: B7 VL
B10: recombinant 4F11 IgG1 (antibody, V domains shown)
VH: B7 VH
VL: B7 VL
B11: 4F11 antibody (murine IgG2b, hybridoma-produced) (antibody, V domains shown)
VH: B7 VH
VL: B7 VL
notes: also called mAb 4F11; 4F11 Hybridoma
B12: 1F4 antibody (murine IgG2a, hybridoma-produced) (antibody, V domains shown)
VH: QVHLQQSGSELRSPGSSVKLSCKDFDSEVFPIVYMRWIRQKPGHGFEWIGDILPSFGRTIYGEKFEDKATLDADTVSNTAYLELNSLTSEDSAIYYCARGDHGNWLAYWGQGTLVTVSA
VL: DIVMTQSHKFMSTSVGDRVTITCKASQDVSTAVAWYQQKPGQSPKLLIYWASTRHTGVPNRFTGIISGTDYTLTISSVQAEDLALYYCQQHYSAPWTFGGGTKLEIK
notes: also called mAb 1F4; IF4
B13: 4B2 antibody (murine IgG2a, hybridoma-produced) (antibody, V domains shown)
VH: QIQLVQSGPELKKPGETVKISCKASGFTFTDYPMHWVKQAPGKSLKWMGWINTETEEPTYSDDFKGRFALSLETSASTTYLQINNLKNEDTATYFCARSGYYYGSTYAWFGYWGQGTLVTVSA
VL: DVVMTQIPLSLPVSLGDQASISCRSSQSLIHTNGDTFLHWYLQKPGQSPKLLIYKVSNRFSGVPDRFTGGGSGTDFTLKISRVEAEDLGIYFCSQSALFPYTFGGGTNLEIK
notes: also called mAb 4B2

Legend:
[1] = target: recombinant neuraminidase (rNA) of B/Florida/04/06 (influenza B virus B/Florida/04/06); assay: ELISA, rNA B/Florida/4/2006 coated at 2 ug/mL
[2] = target: recombinant neuraminidase (rNA) of B/Malaysia/2506/04 (influenza B virus B/Malaysia/2506/04)
[3] = target: recombinant neuraminidase (rNA) of B/Florida/04/06 (influenza B virus B/Florida/04/06); assay: ELISA, biotinylated 1F2 on rNA B/Florida/04/2006, no competitor
[4] = target: neuraminidase of B/Lee/40 (purified whole virus) (influenza B virus B/Lee/40, UniProt P03474 1-466); assay: ELISA on purified whole virus
neuraminidase of B/Lee/40 (purified whole virus), sequence (P03474 whole entry): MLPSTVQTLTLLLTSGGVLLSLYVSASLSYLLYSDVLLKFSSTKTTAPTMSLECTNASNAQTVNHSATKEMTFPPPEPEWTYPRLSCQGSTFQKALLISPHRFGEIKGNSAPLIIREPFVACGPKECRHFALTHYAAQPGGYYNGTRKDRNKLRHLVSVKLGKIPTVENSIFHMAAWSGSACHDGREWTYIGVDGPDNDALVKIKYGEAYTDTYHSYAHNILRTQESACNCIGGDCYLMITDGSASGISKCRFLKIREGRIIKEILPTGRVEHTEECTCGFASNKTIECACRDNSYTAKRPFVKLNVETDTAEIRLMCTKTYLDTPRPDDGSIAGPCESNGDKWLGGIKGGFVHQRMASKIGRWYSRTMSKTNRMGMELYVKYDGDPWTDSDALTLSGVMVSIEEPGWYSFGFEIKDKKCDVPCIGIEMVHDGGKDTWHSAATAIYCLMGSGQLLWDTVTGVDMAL

[5] = target: recombinant neuraminidase (rNA) of B/Florida/04/06 (influenza B virus B/Florida/04/06)
[6] = target: recombinant neuraminidase (rNA) of B/Florida/04/06 (influenza B virus B/Florida/04/06); assay: ELISA, biotinylated 3G1 on rNA B/Florida/04/2006, no competitor
[7] = target: neuraminidase of wild type B/Malaysia/2506/04 virus (on virus and on infected MDCK cells) (influenza B virus B/Malaysia/2506/04); assay: cell-based or functional assay
[8] = target: recombinant neuraminidase (rNA) of B/Malaysia/2506/04 (influenza B virus B/Malaysia/2506/04); assay: ELISA, rNA B/Malaysia/2506/04 coated at 2 ug/mL
[9] = target: recombinant neuraminidase (rNA) of B/Florida/04/06 (influenza B virus B/Florida/04/06); remark: listed apart in the source
[10] = target: recombinant neuraminidase (rNA) of B/Florida/04/06 (influenza B virus B/Florida/04/06); assay: ELISA, biotinylated 4B2 on rNA B/Florida/04/2006, no competitor

Binder	EC50 (read off the curve) [1]	Kd [2]	binding result [4]	other results
B1	0.03 µg/mL	0.68 nM		
B2		0.958 nM		
B3	0.03 µg/mL	1.16 nM		
B4	0.03 µg/mL		binds	EC50 (read off the curve) [3]: 0.02 µg/mL; EC50 (read off the curve) [5]: 0.2 µg/mL
B5	0.05 µg/mL	1.05 nM		
B6			binds	EC50 (read off the curve) [6]: 0.07 µg/mL; NI activity, NA-Star assay (percent inhibition) [7]: 100%
B7		0.00298 nM		EC50 (read off the curve) [8]: 0.07 µg/mL
B8		0.00472 nM		
B9		0.00336 nM		
B10		0.00891 nM		
B11			binds	EC50 (read off the curve) [8]: 0.06 µg/mL
B12			binds	EC50 (read off the curve) [9]: 0.04 µg/mL
B13			binds	EC50 (read off the curve) [10]: 0.1 µg/mL

Source: patent publication US20220153873A1 (ICAHN SCHOOL OF MEDICINE AT MOUNT SINAI, published 2022)
